Like-named read-outs stand apart in the source and are kept apart here. [ ]: non-standard residue; d: D form. F2Pmp = N[C@@H](Cc1ccc(C(F)(F)P(=O)(O)O)cc1)C(=O)O
How the values were obtained:
[1] = Kinetic constants for PTP1B-catalyzed hydrolysis of pNPP; format: biochemical; settings: pNPP as substrate
Excerpt: (§1) The catalytic domain of PTP1B (residues 1 to 321) was used for in vitro study. PTP1B mutants, C215S, D181A, and Q262A, were described previously (9, 25, 26). PTP1B double mutants, D181A/C215S and C215S/Q262A, were generated by PCR reactions, according to the standard procedure of the Quick-Change™ site-directed mutagenesis kit (Stratagene), using pT7-7/PTP1B/C215S as a template. PTP1B double mutants, D181A/C215E and D181A/Q262A, were generated by similar PCR procedures, using pT7-7/PTP1B/D181A as a template. The recombinant wild-type and mutant PTP1Bs were expressed in E. coli, and purified to homogeneity as described (25, 27). Protein concentration was determined from absorbance measurement at 280 nm, using an absorbance coefficient of 1.24 for 1 mg/ml PTP1B.
PTP activity was assayed at 25° C. and pH 7.0, in a reaction mixture (0.2 ml) containing pNPP concentrations ranging from 0.2 to 5 Km. The following buffered solution was used for activity measurements: pH 7.0, 50 mM 3,3-dimethylglutarate, 1 mM EDTA; the ionic strength was 0.15 M, as adjusted by addition of NaCl. Initial rate measurements for the enzyme-catalyzed hydrolysis of pNPP were conducted as previously described (26). Michaelis-Menten kinetic parameters were determined from a direct fit of the data to the Michaelis-Menten equation, using the nonlinear regression program, KINETASYST (Intellikinetics, State College, Pa.).

EGF receptor = test: Substrate protection: EGF receptor tyrosine phosphorylation in COS1 cells expressing PTP1B forms (anti-pTyr Western blot); format: cell-based, Monkey; settings: COS1 cell lysates, anti-pTyr immunoblot (FIG. 4)
Protocol: FIG. 4 sets forth Western blots (WB) that show the level of tyrosine phosphorylation in the epidermal growth factor receptor (EGFR) upon expression of the wild-type and mutant PTP1Bs (4 μg plasmid/60 mm dish) in COS1 cells. Samples (50 μg total protein) were taken from the lysates of COS1 cells transfected with 4 μg of pJ3H plasmids expressing HA-tagged wild-type PTP1B, D181A, C215S, D181A/Q262A, or D181A/C215S. These samples were loaded into each lane for SDS-PAGE electrophoresis, and transferred onto a nitrocellulose membrane. The proteins on the membrane were first immunoblotted with anti-pTyr HRP conjugate (upper panel). The membrane was then stripped and re-probed with anti-hemagglutinin (anti-HA) HRP conjugate (lower panel).
The hemagglutinin-tagged (HA-tagged) full-length human wild-type PTP1B in pJ3H expression vector was a gift from Dr. Chemoff (30). The HA-tagged PTP1B mutants, C215S, D181A, D181A/C215S, and D181A/Q262A, were generated by PCR reactions, according to the standard procedure of the Quick-Change™ site-directed mutagenesis kit (Stratagene), using pJ3H-HA-PTP1B as a template. All mutations were verified by DNA sequencing.
Monkey kidney COS1 cells (ATCC: CRL-1650) were maintained in Dulbecco's modified Eagle's minimum essential medium (DMEM), supplemented with 10% fetal bovine serum (Life Technologies, Inc.), penicillin (50 units/ml), streptomycin (50 μg/ml), and L-glutamine (2 mM) under a humidified atmosphere containing 5% CO2. In transient transfection experiments, COS1 cells were inoculated at a density of 2×10^5 cells/60-mm dish, and grown overnight in DMEM containing 10% fetal bovine serum. Transfection was performed using LipoTAXI^R according to the manufacturer's recommendations (Stratagene, Cedar Creek, Tex.). Each transfection assay included 4 μg of purified DNA mixed with LipoTAXI^R in a 1:5 DNA:lipid ratio per 60-mm dish of cells. Following transfection, the cells were exchanged to normal culture medium, and maintained for 44 to 48 h at 37° C. and 5% CO2. The efficiency of transfection, as assessed by 5-bromo-4-chloro-3-indolyl-β-D galactoside (X-Gal) staining of pCMV-β-gal-transfected (β-Gal staining kit, Invitrogen) COS cells, was 25%.
The transfected cells (treated with or without EGF) were lysed with “lysis buffer” containing 50 mM Tris-HC1 (pH 7.5), 5 mM EDTA, 150 mM NaCl, 10 mM sodium phosphate, 10 mM sodium fluoride, 5 mM iodoacetic acid, 1 mM benzamidine, 1% Triton X-100, 10 μg/ml leupeptin, and 5 μg/ml Aprotinin. Lysate protein concentration was estimated using Bio-Rad protein assay reagent (Bio-Rad, Hercules, Calif.).
For immunoprecipitation, 1 mg of cell lysate was immunoprecipitated overnight with 30 μl of agarose-conjugated anti-hemagglutinin antibody at 4° C. Immunocomplexes were washed four times with the cell lysis buffer, and boiled for 5 min in SDS-PAGE sample buffer. Proteins in the cell lysate were separated by 8% SDS-PAGE under reducing conditions, according to the method of Laemmli (31), followed by blotting onto nitrocellulose membranes (Protran, Schleicher & Schuell). The nitrocellulose membranes were blocked with 5% non-fat dry milk in Tris-buffered saline/Tween (TBST) buffer (20 mM Tris-HC1, 150 mM NaCl, 0.1% Tween-20; pH 7.6) for 1 h at 25° C.
Thereafter, blots were incubated overnight with primary antibodies diluted in TBST containing 5% non-fat dry milk at 4° C. […]

[2] = target: T1, EGFR 988-998 peptide DADEpYLIPQQG
T1 chain: DADEXLIPQQG

[3] = test system: EGFR^988-998 peptide, DADEpYLIPQQG; test: Kinetic constants for PTP1B-catalyzed hydrolysis of pTyr-containing EGFR988-998 peptide; format: biochemical; settings: EGFR988-998 peptide as substrate
Excerpt: as §1
(§2) All assays were performed at 25° C. in buffer (pH 7.0, ionic strength=0.15 M) containing 50 mM 3,3-dimethylglutarate and 1 mM EDTA. A continuous spectrophotometric assay, previously described (28), was employed to determine kcat and Km for the pTyr-containing peptides. The dephosphorylation reaction was monitored by either an increase in absorbance at 282 nm, or an increase in fluorescence at 305 nm. Fluorometric and absorbance determinations were performed on a Perkin-Elmer LS50B fluorometer and a Perkin-Elmer Lambda 14 spectrophotometer, respectively. The instruments were equipped with a water-jacketed cell holder, permitting maintenance of the reaction mixture at the desired temperature (25° C.).

[4] = target: T2, EGFR^988-998 peptide, DADEpYLIPQQG (Homo sapiens, UniProt P18031, D181A); test: as above; format: biochemical; settings: EGFR988-998 peptide as substrate
T2 construct: The catalytic domain of PTP1B (residues 1 to 321) was used for in vitro study; made in house; host or cells: E. coli (pT7-7 plasmids)
T2 sequence (P18031 1-321 D181A): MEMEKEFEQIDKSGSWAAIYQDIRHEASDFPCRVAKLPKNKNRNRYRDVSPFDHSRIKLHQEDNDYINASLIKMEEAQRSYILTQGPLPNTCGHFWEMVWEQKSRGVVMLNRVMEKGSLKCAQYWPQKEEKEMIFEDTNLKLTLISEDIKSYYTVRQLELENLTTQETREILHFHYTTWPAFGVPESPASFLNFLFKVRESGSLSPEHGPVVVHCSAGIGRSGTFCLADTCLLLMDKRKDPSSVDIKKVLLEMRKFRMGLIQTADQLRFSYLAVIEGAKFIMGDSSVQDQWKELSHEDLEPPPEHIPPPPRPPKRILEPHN
Excerpt: as §1, §2

[5] = test system: Ac-Asp-Ala-Asp-Glu-F2Pmp-Leu-NH2; settings: cited from earlier work
[6] = target: Ac-Asp-Ala-Asp-Glu-F2Pmp-Leu-NH2; test: Isothermal titration calorimetry, binding of PTP1B and mutants to F2Pmp peptide; settings: ITC, 25° C. and pH 7.0; data from this study
Protocol: FIG. 3 portrays calorimetric isothermal titration for the reaction of peptide Ac-Asp-Ala-Asp-Glu-F2Pmp-Leu-NH2 with PTP1B/D181A/Q262A. The upper graph depicts raw data for thirty 8-μl injections of the peptide (0.5 mM stock) into the isothermal cell containing 32 μM PTP1B/D181A/Q262A, at 4-min intervals and 25° C. Both the protein and the peptide were in 50 mM 3,3-dimethylglutarate buffer (I=0.15 M, pH 7.0) containing 1 mM DTT. The lower graph depicts an integration curve showing experimental points that were obtained by integration of the above peaks as plotted against the molar ratio of the peptide to PTP1B/D181A/Q262A within the reaction cell. The solid line corresponds to the best fit to the data according to the nonlinear, least-squares regression algorithm, ORIGIN (29).
All isothermal titration calorimetry experiments were performed using an MCS Isothermal Titration Calorimetry System from Microcal Inc. (Northampton, Mass.). […] The ionic strength of the buffer was adjusted to 0.15 M by addition of NaCl. Protein concentration in the calorimeter cell was 27-85 μM, while the ligand concentration in the syringe was 0.37-1 mM.
(§3) The PTP1B samples used in the isothermal titration calorimetry experiments were dialyzed completely against buffer. High-concentration stock solutions were prepared for ligands with distilled water, and adjusted to pH 7.0. Stock was diluted at least 26-fold with 50 mM 3,3-dimethylglutarate buffer before titration. Protein dilution during titration was determined by titration of buffer into the protein solution. […] The heat of ligand dilution was corrected by subtracting the average heat of injection after saturation.
The binding data were analyzed using ORIGIN software (29). Binding constant, K, and enthalpy change, ΔH, were used to calculate free energy change, ΔG, and entropy change, ΔS, according to equation [1]: −RTLnK=ΔG=ΔH−TΔS [1] where R is the gas constant and T is the absolute temperature.

[7] = target: T3, Ac-Asp-Ala-Asp-Glu-F2Pmp-Leu-NH2; test: ITC, 25 C, pH 7.0
T3 construct: Synthetic hexapeptide printed in three-letter code; also called F2Pmp-containing peptide; non-hydrolyzable substrate analog
T3 peptide: Ac-DADE[F2Pmp]L-NH2
Protocol: (§4) All isothermal titration calorimetry experiments were performed using an MCS Isothermal Titration Calorimetry System from Microcal Inc. (Northampton, Mass.). Experiments at pH 7.0 were conducted at 25° C., in 50 mM 3,3-dimethylglutarate buffer containing 1 mM DTT. The ionic strength of the buffer was adjusted to 0.15 M by addition of NaCl. Protein concentration in the calorimeter cell was 27-85 µM, while the ligand concentration in the syringe was 0.37-1 mM.
(§5) A typical titration curve and binding isotherm for the binding of D181A/Q262A to Ac-Asp-Ala-Asp-Glu-F_2Pmp-Leu-NH_2 is shown in FIG. 3. From curve-fitting of the binding isotherms, the stoichiometry for the binding of the peptide to D181A/Q262A was determined to be 1:1.

[8] = target: T3, Ac-Asp-Ala-Asp-Glu-F2Pmp-Leu-NH2; test: ITC, 25 C, pH 7.0
Protocol: as §4
as §3, with “Stock was diluted at least 26-fold with 50 mM 3,3-dimethylglutarate buffer before titration.” left out
as §5

B1: PTP1B/D181A, catalytic domain (residues 1 to 321) (protein)
chain: MEMEKEFEQIDKSGSWAAIYQDIRHEASDFPCRVAKLPKNKNRNRYRDVSPFDHSRIKLHQEDNDYINASLIKMEEAQRSYILTQGPLPNTCGHFWEMVWEQKSRGVVMLNRVMEKGSLKCAQYWPQKEEKEMIFEDTNLKLTLISEDIKSYYTVRQLELENLTTQETREILHFHYTTWPAFGVPESPASFLNFLFKVRESGSLSPEHGPVVVHCSAGIGRSGTFCLADTCLLLMDKRKDPSSVDIKKVLLEMRKFRMGLIQTADQLRFSYLAVIEGAKFIMGDSSVQDQWKELSHEDLEPPPEHIPPPPRPPKRILEPHN
Km, fold lower than wild-type enzyme [1]: 30 fold | kcat, fold lower than wild-type enzyme [1]: 320 fold | Km ([1]; 25° C. and pH 7.0): 80 ± 30 µM | kcat ([1]; 25° C. and pH 7.0): (3.1 ± 0.3) × 10^−2 s^−1 | level of pTyr in the EGF receptor / enhancement of EGF receptor phosphorylation (EGF receptor): higher in cells expressing the D181A, rather than the C215S, mutant | Km (hydrolysis of the EGFR 988-998 peptide, 25 C, pH 7.0) [2]: 56 µM | Km ([3]; 25° C. and pH 7.0): 56 ± 2 µM | kcat ([3]; 25° C. and pH 7.0): (6.5 ± 0.2) × 10^−2 s^− | Km, fold higher than PTP1B (wild-type) [4]: 22 fold | kcat, fold lower than PTP1B (wild-type) [4]: 920 fold | binding, fold tighter than the C215S mutant ([5]; F2Pmp peptide, previously determined (24)): 5 fold | Kd ([5]; ITC, 25° C. and pH 7.0, data from (24)): 40 ± 10 nM

B2: PTP1B/D181A/C215E, catalytic domain (residues 1 to 321) (enzyme, human, UniProt P18031 1-321, looked up)
chain: MEMEKEFEQIDKSGSWAAIYQDIRHEASDFPCRVAKLPKNKNRNRYRDVSPFDHSRIKLHQEDNDYINASLIKMEEAQRSYILTQGPLPNTCGHFWEMVWEQKSRGVVMLNRVMEKGSLKCAQYWPQKEEKEMIFEDTNLKLTLISEDIKSYYTVRQLELENLTTQETREILHFHYTTWPAFGVPESPASFLNFLFKVRESGSLSPEHGPVVVHESAGIGRSGTFCLADTCLLLMDKRKDPSSVDIKKVLLEMRKFRMGLIQTADQLRFSYLAVIEGAKFIMGDSSVQDQWKELSHEDLEPPPEHIPPPPRPPKRILEPHN
notes: range 1-321; Used in vitro (ITC)
Kd [6]: 1300 nM | fold lower affinity than the C215S mutant [7]: 7 fold | fold lower affinity than the D181A mutant [7]: 32 fold | phosphatase activity [3]: no measurable activities | TΔS [8]: -20.4 kcal/mol | ΔG [8]: -8 kcal/mol | ΔH [8]: -28.4 kcal/mol

— patent publication US8071348B2, “Protein tyrosine phosphatase substrate-trapping double mutant and uses thereof” (Albert Einstein College of Medicine of Yeshiva University, priority 2002, dated 2011)
